Data reported in paper PMC3716694, “Crystal structure of signal regulatory protein gamma (SIRPγ) in complex with an antibody Fab fragment” (BMC Structural Biology, 2013).

How the values were obtained:
[1] = target: T1, extracellular region of human signal regulatory protein gamma (SIRPγ) (human, UniProt Q9P1W8-1, high-mannose N-glycans (CHO Lec3.2.8.1); in the crystal de-glycosylated with endoglycosidase F1, N-acetylglucosamine modelled at residue 240); experiment: AUC; sedimentation velocity of SIRPγ: FabOX117 mixtures (2:1 and 1:2), total 1 mg/ml (13.7/6.3 μM), 40 000 rpm, 20 mM Tris-HCl pH 7.5, 200 mM NaCl, 20°C; conditions: both partners purified
T1 construct: SIRPγ, human, residues 29-347 of NP_061026, three Ig-like domains d1-d3; Glycosylated in the AUC experiments, Endo F1-treated in the crystal; also called SIRPβ2

[2] = target: T1, extracellular region of human signal …; experiment: AUC; sedimentation equilibrium of SIRPγ: FabOX117 mixtures at 2:1, 1:1 and 1:2, total 1 mg/ml, 15 000, 20 000, 28 000 and 36 000 rpm, fitted to A + B ↔ AB (SEDPHAT), 20 mM Tris-HCl pH 7.5, 200 mM NaCl, 20°C; conditions: both partners purified

T1 sequence (Q9P1W8 29-347): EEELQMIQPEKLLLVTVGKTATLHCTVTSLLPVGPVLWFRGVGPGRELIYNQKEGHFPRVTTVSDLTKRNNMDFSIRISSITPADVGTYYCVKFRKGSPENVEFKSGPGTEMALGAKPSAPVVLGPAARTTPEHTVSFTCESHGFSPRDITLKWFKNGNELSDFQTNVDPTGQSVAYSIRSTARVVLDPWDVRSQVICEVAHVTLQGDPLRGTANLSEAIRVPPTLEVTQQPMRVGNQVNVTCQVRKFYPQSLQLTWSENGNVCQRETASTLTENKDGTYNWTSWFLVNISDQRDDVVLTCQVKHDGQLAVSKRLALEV

stoichiometry N [1]: 1
Kd [2]: 1200 nM
B1: Fab fragment of the anti-SIRP monoclonal antibody OX117 (Fab, V domains shown)
VH: EVKLQQSGPELVKPGASVKISCKASGYSFTSYYIHWVKQRPGQGLEWIGWVFPGSGNTKYNEKFKGKATLTADTSSSTAYMQLSSLTSEDSAVYFCARGNYDRAWFAYWGQGTLVTVSA
VL: DIVITQSPKFMSTSVGDRVSITCKASQDVSTAVAWFQQKPGQSPKLLIYSASYRYTGVPDRFTGSGSGTDFTFTISSVQAEDLAVYYCQQHYSTPWTFGGGTKLEIK
notes: Fd region (Vh and CH1 domains) of OX117, 220 residues; light chain of OX117, 214 residues; Recombinant Fab; also called FabOX117; not shown: His6, C-terminal, kept
